According to patent publication US20230322943A1 (SUNSHINE GUOJIAN PHARMACEUTICAL SHANGHAI, published 2023):
Values belong to the binder of their own block, whether it stands above or below them.

Experiments:
[1] = target: T1, human full-length CD38 on cells (human, UniProt P28907 1-300); experiment: cell-based or functional assay
[2] = target: T1, human full-length CD38 on cells; experiment: flow cytometry on Daudi cells (MFI), FITC goat anti-human Fc secondary antibody
Protocol: After Daudi cells were counted, PBS solution containing 1% BSA was used to inoculate the cells into 96-well round-bottom culture plates with 2×10⁵ cells per well. 50 µl anti-CD38 antibody in gradient dilution with PBS solution was added to the 96-well plate. The plate was incubated at room temperature for 1 h, then it was centrifuged to discard the supernatant. Then the cells was washed with PBS twice. FITC-labeled goat anti-human (Fc-Speicific) antibody was added (1:1000 diluted with PBS containing 1% BSA) and the plate was incubated at room temperature for half an hour. The cells was centrifuged and washed, then the Mean Fluorescence Intensity (MFI) of the FITC channel was detected by flow cytometry. The flow cytometer software was used to process the experimental data and the mean fluorescence intensity was calculated. The GraphPad Prism6 was used for data analysis and mapping, and EC50 was calculated.

[3] = target: T1, human full-length CD38 on cells; experiment: flow cytometry on DND-41 tumor cells, PE secondary antibody
Description: (§1) Flow cytometry was used to detect the binding activity of murine antibodies to recombinant high-expression cell line CHOS-CD38 cells and tumor cell line DND-41 cells. The specific methods were as follows:
(§2) CHOS-CD38 and DND-41 cells were collected, centrifuged to remove the cell culture medium, and the cells were washed twice with PBS buffer. The cells were counted and diluted with 1%BSA FACS buffer to 2^{∗}10⁶ cells/ml. The cells were spread into round-bottom 96-well plate for use. The antibody to be tested was diluted with 1%BSA buffer for 8 gradients and added to the round-bottom plate with the above cells. The plate was incubated at 4° C. for 1 hour. After centrifugation, the supernatant was removed and the plate was washed 3 times with 1% BSA FACS buffer. 100 µl donkey anti-mouse PE fluorescent secondary antibody or goat anti-human PE fluorescent secondary antibody was added to each well at a ratio of 1:300 (see the instructions for fluorescent secondary antibody for details), and the plate was incubated at 4° C. for 1 hour. The samples were washed for 3 times with 1% BSA FACS buffer and then re-suspended with 1% BSA FACS buffer at 200 µl/well. FACScalibur BD was used to analyze the samples.

[4] = target: T1, human full-length CD38 on cells; experiment: flow cytometry on CHOS-CD38 cells, PE secondary antibody
Description: as §1, §2

human CD38-Fc protein = target: T2, human CD38-Fc protein (human, UniProt P28907 43-300); experiment: indirect ELISA, CD38-Fc coated at 1 ug/ml, HRP goat anti-mouse IgG
T2 construct: extracellular domain; Recombinant Fc-tagged extracellular segment of human CD38; not shown: Fc tag

ADCC EC50 (Daudi target cells, human PBMC effectors, LDH release) [1]: 0.106 nM | apoptosis induction EC50 (Daudi cells, Annexin V-FITC) [1]: 0.568 nM | EC50 [2]: 0.605 nM
B1: 50G12-Humanized (antibody, human IgG1, kappa, V domains shown)
VH: QVQLVQSGAEVKKPGASVKVSCKASGYTFNTYWMQWVRQAPGQGLEWMGAIYPGDGDITYNQKFKGRVTLTADKSTSTVYMELSSLRSEDTAVYYCAREGYYYGGALDYWGQGTLVTVSS
VL: DIQMTQSPSSLSASVGDRVTITCTASSSVSSSYLHWYQQKPGKAPKLWMYGTSNLASGVPSRFSGSGSGTDYTLTISSLQPEDFATYYCHRYHRSPWTFGQGTKVEIKR
notes: Human IgG1 / Kappa; also called humanized antibody 50G12-Humanized; 50G12-Hu-HC / 50G12-Hu-LC

EC50 [3]: 0.134 µg/mL | EC50 [4]: 0.687 µg/mL | EC50 (human CD38-Fc protein): 0.173 nM
B2: murine antibody 50G12 (antibody, V domains shown)
VH: QVQLQQSGAELARPGASVKLSCKASGYTFNTYWMQWVKQRPGQGLEWIGAIYPGDGDITYNQKFKGKATLTADKSSNTAYMHLSSLASEDSAVYYCAREGYYYGGALDYWGQGTSVTVSS
VL: QIFLTQSPAIMSASLGERVTMTCTASSSVSSSYLHWYQQKPGSPPKLWMYGTSNLASGVPPRFSGSGSGTSYSLTISSMEAEDAATYYCHRYHRSPWTFGGGTKLEIK
notes: Mouse monoclonal antibody purified from hybridoma supernatant by Protein G; also called 50Ga12; 50G12 murine antibody

EC50 [2]: 0.528 nM
B3: 50G12-Chimeric (antibody, human IgG1, V domains shown)
VH: B2 VH
VL: B2 VL
notes: Murine 50G12 VH joined to the human IgG1 heavy chain constant region and murine 50G12 VL joined to the human Kappa chain constant region; also called 50G12-Chimeic; 50G12-Chi-HC / 50G12-Chi-LC
